Molecular target: AβO (amyloid-beta oligomer) (UniProt P05067)
Assay: fluorescence quenching titration (Cy5/BHQ3), LangmuirEXT1 fit
Details: 25 °C; buffer not stated for the aptamer-only binding assays (AβO detection assay: 50 mM Tris-HCl pH 8, 10 mM MgCl2)

UniProt P05067, sequence (P05067 whole entry): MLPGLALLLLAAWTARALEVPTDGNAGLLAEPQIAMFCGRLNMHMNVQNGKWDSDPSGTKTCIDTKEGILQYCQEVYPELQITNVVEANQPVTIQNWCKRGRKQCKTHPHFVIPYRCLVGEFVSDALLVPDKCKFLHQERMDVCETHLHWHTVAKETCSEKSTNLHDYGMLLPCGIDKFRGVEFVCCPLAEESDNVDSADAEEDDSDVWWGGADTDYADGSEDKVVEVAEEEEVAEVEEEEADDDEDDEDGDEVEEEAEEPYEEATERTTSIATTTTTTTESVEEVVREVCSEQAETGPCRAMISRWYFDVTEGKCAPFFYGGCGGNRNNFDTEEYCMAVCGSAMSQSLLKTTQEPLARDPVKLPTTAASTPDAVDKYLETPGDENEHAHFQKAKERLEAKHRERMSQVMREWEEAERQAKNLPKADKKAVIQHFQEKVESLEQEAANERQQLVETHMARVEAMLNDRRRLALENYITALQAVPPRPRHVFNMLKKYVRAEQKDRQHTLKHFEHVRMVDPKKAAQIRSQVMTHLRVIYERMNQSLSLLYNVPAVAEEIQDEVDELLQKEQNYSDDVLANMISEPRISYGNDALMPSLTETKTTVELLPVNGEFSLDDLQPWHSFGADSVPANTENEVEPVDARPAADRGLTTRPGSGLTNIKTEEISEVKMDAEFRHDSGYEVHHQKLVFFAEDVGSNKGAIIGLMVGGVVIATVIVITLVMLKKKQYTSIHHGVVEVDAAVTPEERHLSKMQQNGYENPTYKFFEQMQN

Sequence: TGACCAACGCCTGTGGTGTTGGGGCGGGTGCGGTTGGTCA [A4]
- Kd: 7.54 nM
